Numbering of substitutions follows the chain as printed.
Columns and labels:
TUT1_ΔN (form-I crystal) = biological target: T1, TUT1_ΔN (form-I crystal) (Homo sapiens, UniProt Q9H6E5, DEL235-304/C372A/C415A/C501A/C504S/DEL651-750); experiment: X-ray crystal structure (soak), […] Å; type: binding; settings: Ba2+; 2 mM UTP, 4 mM BaCl2; incoming nucleotide site
T1 construct: gene TUT1; palm, fingers and KA-1 domains; residues 1-140, 235-304 and 651-750 removed; cysteine mutations (order of the two mutation sets read as form-I, form-II); pET22b His tag, E. coli
T1 sequence (Q9H6E5 with tags, fused parts or gaps DEL235-304/C372A/C415A/C501A/C504S/DEL651-750): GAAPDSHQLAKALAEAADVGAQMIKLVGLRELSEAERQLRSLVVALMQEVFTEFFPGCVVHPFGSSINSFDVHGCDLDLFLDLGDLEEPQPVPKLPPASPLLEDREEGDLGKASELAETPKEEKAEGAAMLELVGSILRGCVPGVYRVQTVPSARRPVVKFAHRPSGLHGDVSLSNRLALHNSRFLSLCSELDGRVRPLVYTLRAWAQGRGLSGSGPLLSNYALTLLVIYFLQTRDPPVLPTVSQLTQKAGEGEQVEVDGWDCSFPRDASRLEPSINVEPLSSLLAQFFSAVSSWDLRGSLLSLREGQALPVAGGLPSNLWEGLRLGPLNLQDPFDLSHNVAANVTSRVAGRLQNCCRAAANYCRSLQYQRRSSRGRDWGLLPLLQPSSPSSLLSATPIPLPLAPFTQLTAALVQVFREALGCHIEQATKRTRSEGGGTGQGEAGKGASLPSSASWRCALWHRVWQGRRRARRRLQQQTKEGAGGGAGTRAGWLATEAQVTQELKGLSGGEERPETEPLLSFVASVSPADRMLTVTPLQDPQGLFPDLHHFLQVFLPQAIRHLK

[1] = biological target: T2, TUT1_ΔN (form-II crystal) (Homo sapiens, UniProt Q9H6E5, DEL235-304/C372A/C399A/C415A/C501A/C504S/C574A/DEL651-750); experiment: X-ray crystal structure (soak), […] Å; type: binding; settings: Mg2+; 2 mM UTP, 4 mM MgCl2; incoming nucleotide site
T2 construct: gene TUT1; palm, fingers and KA-1 domains; residues 1-140, 235-304 and 651-750 removed; cysteine mutations (order of the two mutation sets read as form-I, form-II); pET22b His tag, E. coli
T2 sequence (Q9H6E5 with tags, fused parts or gaps DEL235-304/C372A/C399A/C415A/C501A/C504S/C574A/DEL651-750): T1 sequence (Q9H6E5 with tags, fused parts or gaps DEL235-304/C372A/C415A/C501A/C504S/DEL651-750) with C189A, C364A

[2] = biological target: T2, TUT1_ΔN (form-II crystal); experiment: X-ray crystal structure (soak), […] Å; type: binding; settings: Mg2+; 10 mM ATP, 20 mM MgCl2; incoming nucleotide site
purified protein [3] = substrate: O=c1ccn([C@@H]2O[C@H](COP(=O)(O)OP(=O)(O)OP(=O)(O)O)[C@@H](O)[C@H]2O)c(=O)[nH]1; experiment: purified protein; type: biochemical, Homo sapiens; settings: co-substrate 1 μM U6 snRNA-u4, 10 mM MgCl2, 100 mM NaCl, pH 8.5, 37 °C
purified protein [4] = substrate: Nc1ncnc2c1ncn2[C@@H]1O[C@H](COP(=O)(O)OP(=O)(O)OP(=O)(O)O)[C@@H](O)[C@H]1O; experiment: purified protein; type: biochemical, Homo sapiens; settings: co-substrate 1 μM U6 snRNA-u4, 10 mM MgCl2, 100 mM NaCl, pH 8.5, 37 °C

Question: Which results are given for `O=c1ccn([C@@H]2O[C@H](COP(=O)(O)OP(=O)(O)OP(=O)(O)O)[C@@H](O)[C@H]2O)c(=O)[nH]1` [UTP]?
Answer: X-ray crystal structure (soak), 2.95 Å (TUT1_ΔN (form-I crystal)): The form-I TUT1_ΔN structure complexed with UTP (soaked in) was initially solved; X-ray crystal structure (soak), 2.7 Å [1]: form-II TUT1_ΔN with UTP and ATP soaked in were also analysed

Question: How did the “X-ray crystal structure (soak), 2.8 Å” value [2] turn out when `Nc1ncnc2c1ncn2[C@@H]1O[C@H](COP(=O)(O)OP(=O)(O)OP(=O)(O)O)[C@@H](O)[C@H]1O` [ATP] was run?
Answer: form-II TUT1_ΔN with UTP and ATP soaked in were also analysed

B1: human TUT1 (full-length, wild-type) (Homo sapiens) (protein)
chain: MAAVDSDVESLPRGGFRCCLCHVTTANRPSLDAHLGGRKHRHLVELRAARKAQGLRSVFVSGFPRDVDSAQLSEYFLAFGPVASVVMDKDKGVFAIVEMGDVGAREAVLSQSQHSLGGHRLRVRPREQKEFQSPASKSPKGAAPDSHQLAKALAEAADVGAQMIKLVGLRELSEAERQLRSLVVALMQEVFTEFFPGCVVHPFGSSINSFDVHGCDLDLFLDLGDLEEPQPVPKAPESPSLDSALASPLDPQALACTPASPPDSQPPASPQDSEALDFETPSSSLAPQTPDSALASETLASPQSLPPASPLLEDREEGDLGKASELAETPKEEKAEGAAMLELVGSILRGCVPGVYRVQTVPSARRPVVKFCHRPSGLHGDVSLSNRLALHNSRFLSLCSELDGRVRPLVYTLRCWAQGRGLSGSGPLLSNYALTLLVIYFLQTRDPPVLPTVSQLTQKAGEGEQVEVDGWDCSFPRDASRLEPSINVEPLSSLLAQFFSCVSCWDLRGSLLSLREGQALPVAGGLPSNLWEGLRLGPLNLQDPFDLSHNVAANVTSRVAGRLQNCCRAAANYCRSLQYQRRSSRGRDWGLLPLLQPSSPSSLLSATPIPLPLAPFTQLTAALVQVFREALGCHIEQATKRTRSEGGGTGESSQGGTSKRLKVDGQKNCCEEGKEEQQGCAGDGGEDRVEEMVIEVGEMVQDWAMQSPGQPGDLPLTTGKHGAPGEEGQPSHAALAERGPKGHEAAQEWSQGEAGKGASLPSSASWRCALWHRVWQGRRRARRRLQQQTKEGAGGGAGTRAGWLATEAQVTQELKGLSGGEERPETEPLLSFVASVSPADRMLTVTPLQDPQGLFPDLHHFLQVFLPQAIRHLK
notes: full-length 1-874, synthetic codon-optimised gene, pET22b (His tag, no cleavage told), E. coli BL21(DE3), Ni-NTA/heparin/Superdex 200
Question: What does the source list for B1?
Answer: Km (purified protein [3]): 59 µM; kcat (purified protein [3]): 0.059 s^–1; Km (purified protein [4]): 1,380 μM; kcat (purified protein [4]): 0.002 s^–1

Source: article PMC5467268, “Crystal structures of U6 snRNA-specific terminal uridylyltransferase” (Nature Communications, 2017)
